{
  "source": "patent US20260265390A1",
  "about": "(SHANDONG SIMCERE BIOPHARMACEUTICAL, published 2026)",
  "binders": {"B1": {"name": "Tri-62 anti-BCMA-GPRC5D-CD3 trispecific antibody (other)", "VH 1": "EGQMVQSGAEVKKPGSSVKVSCKASGYMFTDHTFHWVRQAPGQGLEWMGYIYPRDQNTKYNEKFKGRVTITADKSTSTAYMELSSLRSEDTAVYYCARAGYYGSSHAMDYWGQGTTVTVSS", "VL 1": "DIQMTQSPSSLSASVGDRVTITCKASQDVSTAVAWYQQKPGKSPRLLIYSASSRYTGVPSRFSGSGSGTDFTFTISSLQPEDIATYYCQQLYSTPWTFGGGTKVEIK", "VH 2": "EVQLVQSGAEVKKPGSSVKVSCKASGYTFTSYGISWVRQAPGQGLEWMGEIYPRSGNTYYNEKFKGRVTLTADKSTSTAYMELSSLRSEDTAVYYCARGRAYGRNYPMDYWGQGTTVTVSS", "VL 2": "EIVLTQSPATLSLSPGERATLSCRASQSIGTSIHWYQQKPGQSPRLLIKYASESISGIPARFSGSGSGTDFTLTISSLEPEDFAVYYCQQSNSWPYTFGGGTKVEIK", "VH 3": "EVQLVESGGGVVQPGRSLRLSCAASGFTFTDYYMSWVRQAPGKGLEWVAMSRNKAKGHTIEYSSSVKGRFTISRDNSKNTLYLQMNSLRAEDTAVYYCARDTYESYDGYFDVWGQGTTVTVSS", "VL 3": "DIVMTQSPDSLAVSLGERATINCKSSQSLFNSRSRKNYLAWYQQKPGQTPKLLIYWASIRESGVPDRFSGSGSGTDFTLTISSLQAEDVAVYYCKQSYYLYTFGQGTKLEIK", "chain 1": "ESKYGPPCPPCPAPEAAGGPSVFLFPPKPKDTLMISRTPEVTCVVVDVSQEDPEVQFNWYVDGVEVHNAKTKPREEQFNSTYRVVSVLTVLHQDWLNGKEYKCKVSNKGLPSSIEKTISKAKGQPREPQVYTLPPSQEEMTKNQVSLWCLVKGFYPSDIAVEWESNGQPENNYKTTPPVLDSDGSFFLYSRLTVDKSRWQEGNVFSCSVMHEALHNHYTQKSLSLSLG", "chain 2": "ESKYGPPCPPCPAPEAAGGPSVFLFPPKPKDTLMISRTPEVTCVVVDVSQEDPEVQFNWYVDGVEVHNAKTKPREEQFNSTYRVVSVLTVLHQDWLNGKEYKCKVSNKGLPSSIEKTISKAKGQPREPQVYTLPPSQEEMTKNQVSLSCAVKGFYPSDIAVEWESNGQPENNYKTTPPVLDSDGSFFLVSRLTVDKSRWQEGNVFSCSVMHEALHNHYTQKSLSLSLG", "notes": "Trispecific antibody; Asymmetric (purification method B)"}, "B2": {"name": "Tri-49 anti-BCMA-GPRC5D-CD3 trispecific antibody (other)", "VHH": "EVQLVESGGGLVQPGGSLRLSCAASESISSIHIMAWYRQAPGKQRELVAGIRNDGSTVYVDSVKGRFTISRDNAKNSLYLQMNSLRAEDTAVYYCNADQGFGSYSEWERRSRWGQGTTVTVSS", "VH 1": "EVQLVQSGAEVKKPGSSVKVSCKASGYTFTSYGISWVRQAPGQGLEWMGEIYPRSGNTYYNEKFKGRVTLTADKSTSTAYMELSSLRSEDTAVYYCARGRAYGRNYPMDYWGQGTTVTVSS", "VL 1": "EIVLTQSPATLSLSPGERATLSCRASQSIGTSIHWYQQKPGQSPRLLIKYASESISGIPARFSGSGSGTDFTLTISSLEPEDFAVYYCQQSNSWPYTFGGGTKVEIK", "VH 2": "EVQLVESGGGVVQPGRSLRLSCAASGFTFTDYYMSWVRQAPGKGLEWVAMSRNKAKGHTIEYSSSVKGRFTISRDNSKNTLYLQMNSLRAEDTAVYYCARDTYESYDGYFDVWGQGTTVTVSS", "VL 2": "DIVMTQSPDSLAVSLGERATINCKSSQSLFNSRSRKNYLAWYQQKPGQTPKLLIYWASIRESGVPDRFSGSGSGTDFTLTISSLQAEDVAVYYCKQSYYLYTFGQGTKLEIK", "chain 1": "ESKYGPPCPPCPAPEAAGGPSVFLFPPKPKDTLMISRTPEVTCVVVDVSQEDPEVQFNWYVDGVEVHNAKTKPREEQFNSTYRVVSVLTVLHQDWLNGKEYKCKVSNKGLPSSIEKTISKAKGQPREPQVYTLPPSQEEMTKNQVSLWCLVKGFYPSDIAVEWESNGQPENNYKTTPPVLDSDGSFFLYSRLTVDKSRWQEGNVFSCSVMHEALHNHYTQKSLSLSLG", "chain 2": "ESKYGPPCPPCPAPEAAGGPSVFLFPPKPKDTLMISRTPEVTCVVVDVSQEDPEVQFNWYVDGVEVHNAKTKPREEQFNSTYRVVSVLTVLHQDWLNGKEYKCKVSNKGLPSSIEKTISKAKGQPREPQVYTLPPSQEEMTKNQVSLSCAVKGFYPSDIAVEWESNGQPENNYKTTPPVLDSDGSFFLVSRLTVDKSRWQEGNVFSCSVMHEALHNHYTQKSLSLSLG", "notes": "as for B1"}},
  "key": {"[1]": {"target": "T1, human CD3, endogenous on Jurkat cells and on activated human PBMC (human, UniProt P07766 23-207; P04234 22-171)", "T1 construct": "whole, on cells; CD3 complex as it stands on T cells", "T1 sequence (P07766 23-207, chain 1 of 2)": "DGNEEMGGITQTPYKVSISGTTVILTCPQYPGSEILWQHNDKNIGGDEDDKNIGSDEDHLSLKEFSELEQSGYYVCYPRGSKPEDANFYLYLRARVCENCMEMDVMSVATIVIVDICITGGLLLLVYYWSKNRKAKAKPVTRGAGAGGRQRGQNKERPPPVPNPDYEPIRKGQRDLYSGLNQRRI", "T1 sequence (P04234 22-171, chain 2 of 2)": "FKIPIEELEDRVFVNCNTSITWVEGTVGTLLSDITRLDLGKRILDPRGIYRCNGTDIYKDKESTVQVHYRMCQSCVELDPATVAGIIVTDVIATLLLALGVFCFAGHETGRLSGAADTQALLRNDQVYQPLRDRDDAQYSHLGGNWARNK", "assay": "FACS, Jurkat cells"}, "[2]": {"target": "T1, human CD3, endogenous on Jurkat cells …", "assay": "FACS, activated human PBMC"}, "[3]": {"target": "T2, monkey CD3, on activated monkey PBMC (monkey)", "T2 construct": "whole, on cells", "T2 sequence (Q95LI5 22-198)": "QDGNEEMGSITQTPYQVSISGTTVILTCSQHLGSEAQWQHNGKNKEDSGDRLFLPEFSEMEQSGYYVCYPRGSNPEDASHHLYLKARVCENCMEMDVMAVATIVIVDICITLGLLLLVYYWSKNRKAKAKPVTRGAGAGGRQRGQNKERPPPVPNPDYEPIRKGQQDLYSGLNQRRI", "assay": "FACS, activated monkey PBMC"}, "[4]": {"target": "T3, human GPRC5D, expressed on cells (human, UniProt Q9NZD1 1-345)", "T3 construct": "whole, on cells; Overexpressed on CHOK1 cells; also called CHOK1-human GPRC5D cells", "T3 sequence (Q9NZD1 whole entry)": "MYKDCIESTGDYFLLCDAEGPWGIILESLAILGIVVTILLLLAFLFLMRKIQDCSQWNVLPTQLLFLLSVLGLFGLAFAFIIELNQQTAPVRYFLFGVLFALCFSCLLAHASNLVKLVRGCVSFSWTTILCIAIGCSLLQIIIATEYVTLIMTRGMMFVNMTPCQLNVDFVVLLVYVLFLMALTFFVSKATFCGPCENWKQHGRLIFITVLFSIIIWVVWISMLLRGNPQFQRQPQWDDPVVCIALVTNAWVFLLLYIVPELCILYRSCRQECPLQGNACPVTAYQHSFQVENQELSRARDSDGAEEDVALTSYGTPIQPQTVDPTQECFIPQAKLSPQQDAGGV", "assay": "FACS, CHOK1-human GPRC5D cells", "method": "(§1) Flp-inCHO-human BCMA cells and CHOK1-human GPRC5D cells were scale-up cultured in T-75 cell culture flask to the logarithmic growth phase, respectively, and the cells were pipetted to obtain a single cell suspension. After the cells were counted and centrifuged, the cell precipitate was resuspended to 2×10⁶ cells per milliliter with a FACS buffer (PBS+2% fetal bovine serum). The suspension was added to a 96-well FACS reaction plate at 50 μl/well. 8 concentrations of the anti-BCMA-GPRC5D-CD3 antibodies or control antibodies were added at 50 μl/well, wherein gradient dilution was performed at a dilution ratio of 5 from a concentration of 100 nM. The cells were incubated at 4° C. for 1 h. The obtained mixture was centrifuged and washed 3 times with a PBS buffer. […] The obtained mixture was centrifuged and washed 3 times with a PBS buffer. 100 μl of the mixture was taken for detection and result analysis by FACS (FACS Canto™, purchased from BD Company). Data analysis was performed by software (FlowJo) to obtain the mean fluorescence intensity (MFI) of the cells. Then, a software (GraphPad Prism8) was used for analysis, data fitting and EC50 calculation."}, "[5]": {"target": "T4, human BCMA (B cell maturation antigen), expressed on cells (human, UniProt Q02223 1-184)", "T4 construct": "whole, on cells; Overexpressed on Flp-in CHO cells; also called Flp-inCHO-human BCMA cells; CD269", "T4 sequence (looked up)": "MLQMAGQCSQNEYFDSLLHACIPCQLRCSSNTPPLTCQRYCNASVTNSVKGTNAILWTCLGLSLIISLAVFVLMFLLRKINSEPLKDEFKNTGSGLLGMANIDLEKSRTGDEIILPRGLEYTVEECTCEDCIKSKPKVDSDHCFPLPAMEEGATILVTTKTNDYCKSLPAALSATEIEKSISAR", "assay": "FACS, Flp-inCHO-human BCMA cells", "method": "as §1"}},
  "data": [
    {"binder": "B1", "values": [
      {"measurement": "Maximum mean fluorescence intensity", "setting": "[1]", "value": 462},
      {"measurement": "Maximum mean fluorescence intensity", "setting": "[2]", "value": 452},
      {"measurement": "EC50", "setting": "[3]", "value": 85.5, "unit": "nM"},
      {"measurement": "Maximum mean fluorescence intensity", "setting": "[3]", "value": 740},
      {"measurement": "EC50", "setting": "[4]", "value": 0.4, "unit": "nM"},
      {"measurement": "EC50", "setting": "[5]", "value": 14.5, "unit": "nM"}
    ]},
    {"binder": "B2", "values": [
      {"measurement": "EC50", "setting": "[1]", "value": 157, "unit": "nM"},
      {"measurement": "EC50", "setting": "[2]", "value": 31.8, "unit": "nM"},
      {"measurement": "EC50", "setting": "[3]", "value": 59.4, "unit": "nM"}
    ]}
  ]
}
